From patent publication US20260226194A1

Target: recombinant rabbit PAPPA (rabbit) (UniProt G1SFH7)
Assay: SPR, Biacore 8K+, mAb captured on PrismA chip, PAPPA as analyte, 37 C, mean of n=3

Kd: 170 pM
koff: 0.000559 s⁻¹
kon: 3.28e+06 M⁻¹ s⁻¹
B1: TPP-12744 (antibody, human IgG1, kappa, V domains shown)
VH: QVQLVQSGAEVKKPGASVKVSCKASGYTFTSYAMHWVRQAPGQRLEWMGWMNAGTGATKSSQKFQGRVTITRDTSASTAYMELSSLRSEDTAVYYCARGPSMETPTTFGMDVWGQGTTVTVSS
VL: DIQMTQSPSSVSASVGDRVTITCRASQGISRWLAWYQQKPGKAPKLLIYAASSLQSGVPSRFSGSGSGTDFTLTISSLQPEDFATYYCQQENAYPFTFGGGTKVEIKR
